Publication PMC2730992 (Molecular and biochemical parasitology, 2009)
Blank lines part the entries; values can stand above or below the compound they belong to.

How the values were obtained:
[1] = molecular target: T. brucei S-adenosylmethionine decarboxylase (AdoMetDC), His6-tagged (Trypanosoma brucei)
[2] = molecular target: T1, TcAdoMetDC (T. cruzi AdoMetDC homodimer) (Trypanosoma cruzi, UniProt O76240); test: activation of AdoMet decarboxylation, […]CO2 trapping; type: biochemical; conditions: 5 mM putrescine; allosteric activator; pH 8.0, 37 °C
T1 sequence (O76240 1-85): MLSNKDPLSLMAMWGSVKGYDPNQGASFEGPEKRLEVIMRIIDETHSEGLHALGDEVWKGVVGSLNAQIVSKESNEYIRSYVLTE
T1 sequence (O76240 86-370): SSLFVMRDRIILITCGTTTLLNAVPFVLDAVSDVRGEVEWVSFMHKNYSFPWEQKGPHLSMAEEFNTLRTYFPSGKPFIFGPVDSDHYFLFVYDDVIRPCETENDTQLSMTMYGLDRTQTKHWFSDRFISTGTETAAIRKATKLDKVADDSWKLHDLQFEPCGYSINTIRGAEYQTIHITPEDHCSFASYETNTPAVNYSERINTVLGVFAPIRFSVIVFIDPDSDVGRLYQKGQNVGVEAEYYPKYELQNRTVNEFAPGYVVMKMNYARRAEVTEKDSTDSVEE

[3] = molecular target: T. cruzi S-adenosylmethionine decarboxylase (AdoMetDC), His6-tagged (Trypanosoma cruzi)
[4] = molecular target: T. cruzi S-adenosylmethionine decarboxylase (AdoMetDC), His6-tagged (Trypanosoma cruzi); remark: listed apart in the source

Compound: T. cruzi prozyme, His6-tagged (natural protein)
- stimulation of T. brucei AdoMetDC activity by T. cruzi prozyme, no putrescine [1]: 60 fold

Compound: NCCCCN [putrescine]
- activation of AdoMet decarboxylation, 14CO2 trapping [2]: the T. cruzi AdoMetDC enzyme was stimulated by putrescine

Compound: T. brucei prozyme, His6-tagged (natural protein)
- increase of T. cruzi AdoMetDC activity by T. brucei prozyme, no putrescine [3]: 70 fold

- kcat/Km of AdoMet decarboxylation, co-purified heterodimer, 5 mM putrescine [4]: 5100 M⁻¹ s⁻¹
- kcat/Km of AdoMet decarboxylation, co-purified heterodimer, no putrescine [4]: 1030 M⁻¹ s⁻¹
Compound: T. cruzi prozyme, untagged (natural protein)
